Experiment [1] has as its target T1, human 20S immunoproteasomes (Homo sapiens, UniProt P28062+P28065+P40306).
T1 construct: purchased Immatics Biotechnologies (Tübingen, Germany)
The experiment can be described thus: In vitro proteolysis of MUC1 repeat peptides and glycopeptides by immunoproteasomes. The following applies: for AHG 8 to -11 / PAP8 to -11 / SAP8 to -11: 8- to 11-meric fragments with this N-terminus, % of total 8- to 11-mers; for AVERAGE FRAGMENT LENGTH / NUMBER OF FRAGMENTS: digest by immunoproteasomes; for NUMBER OF FRAGMENTS: HPLC and MALDI-MS; for % of glycopeptide: glycosylated 8- to 11-meric fragments relative to total 8- to 11-mers; for 8-11 mers (%): relative to total amount of digestion products of immunoproteasomal cleavage. The class given is biochemical. The procedure:
A 1 mg/ml solution of immunoproteasomes prepared according to a published protocol (20) was purchased from Immatics Biotechnologies (Tübingen, Germany) and stored frozen at −80° C.
Glycopeptides were incubated with 10 μg of human 20S immunoproteasomes (Immatics) for […], at 37° C., in 10 μl of digestion buffer (20 mM HEPES/KOH, pH 7.6 containing 2 mM Mg(CH3COO)2 and 1 mM DTT) as described (13). Digestion was stopped after 24 h by freezing the sample at −80° C. Human cathepsin-L was purchased from Sigma (Munich, Germany) and solubilized in 0.1 M sodium acetate, pH 5.5, containing 1 mM EDTA and 1 mM dithiothreitol (12). About 5 mU of enzyme were added to sialoglycopeptide substrates SGGP1 to SGGP5 (75-100 μM) in a total volume of 20 μl. The reaction mixtures were incubated at 37° C. for 24 h and 1 μl of trifluoroacetic acid was added to stop the reaction. The reaction products were cleaned by solid-phase extraction on ZipTipC18 pipette tips and 0.5 μl aliquots were applied onto the MALDI target for mass spectrometric analysis. Kinetic studies with the non-glycosylated 100-mer P1 were performed under the same conditions and the products were chromatographed on HPLC for purification and quantification.

Experiment [2] concerns DC2.4 mouse dendritic cells. Nature of the experiment: Cellular processing and cross-presentation in mouse dendritic cell line, peptides eluted from exosomal MHC. The class given is cell-based. The procedure:
Poly-lactic acid based vesicles were generated mixing two solutions: Solution A: 200 nmol of P2 peptide (1 mg) resolved in 3% cold water solution of poly-vinyl alcohol; Solution B: 5% poly-lactic acid in a mixture of ethanol and acetone (9:1, v/v). Solution B (30 ml) was slowly added to solution A (150 ml) under constant mixing and stirring overnight at room temperature. The next day the mixture was centrifuged at 10.000×g for 10 min and washed three times with PBS (200 ml), followed by centrifugation steps as mentioned previously. The generated vesicles were resuspended in 330 μl of PBS and added to media of 4×108 DC2.4 mouse dendritic cells growing confluent in nine cell culture flasks (300 cm^2). The cells were grown as usual, but in exosome-depleted medium.
Cells were incubated with PLA-vesicles for 24 h at 37° C. and 5% CO2. The cell culture supernatant was collected and exosomes were isolated by ultracentrifugation (see below). Isolated exosomes were resuspended in 100 μl 0.1% TFA/H2O. Acidification of exosomes denatures tertiary MHC complex and releases bound peptide epitopes. The solution was shortly spun and injected on a HPLC narrow-bore ODS column for separation of eluted peptides and glycopeptides. Fractions were collected manually, dried and analyzed by MALDI-TOF-MS as described. Molecular masses of detected ions were analyzed by the FindPep software and by nanospray ESI-MS/MS analyses.
Exosomes were isolated from FCS or cell culture supernatant by subsequent centrifugation steps: 10 min/1200 g; 30 min/10000×g; 30 min/20.000×g; and 60 min/[…]. The exosomes were pelleted in the final centrifugation step, washed with PBS and used for further analyses. For the depletion of FCS from exosomes, exosomes from serum were pelleted by ultracentrifugation at 110.000×g for 1 h.

The next experiment deals with T2, HLA-A0201 (Homo sapiens, UniProt P04439, D140Y/D185E/D98H/E176V/E277Q/G131W/G231S/I119V/I121R/I166T/I218V/L300P/L318F/N151K/N90K/P208A/P217A/Q86G/Q94H/R138H/R169H/T345S).
T2 construct: endogenous in cells; host or cells: T2 cell line (TAP-deficient)
Nature of the experiment: MHC stabilization assay on T2 cells. The class given is binding. Particulars: for ligation strength (binding to HLA-A0201): T2 cells, 100 μg peptide, 16 h, W6/32 antibody, FACS; for change of ligation strength by introduction of GalNAc: glycosylated versus non-glycosylated form. The procedure: MHC stabilization assay is based on the increased affinity of HLA-A, -B, -C specific monoclonal W6/32 antibody for the stabilized conformation of MHC molecules after binding of a peptide ligand. The T2 cells express empty MHC molecules with short half-life.
For MHC stabilization assay T2 cells were grown in IMDM medium supplemented with 2% FCS. T2 cells were washed in PBS from the residual serum, and resuspended at 1×10^6/ml of IMDM supplemented with 0.1% FCS and 25 mM HEPES. Half of a million of cells were incubated in 48-well cell culture plate with 1 μg of […]2-microglobulin and 100 μg of peptide for 16 h at 27° C. and 8% CO2. Cells were washed with 5 ml PBS, centrifuged at 180×g for 5 min and the pellet was resuspended in 10 μl PBS containing 1 μg of W6/32 antibody and incubated at 4° C. for 30 minutes.
Subsequently, cells were washed in PBS with 1% BSA (3×5 ml) and the pellet was resuspended in 50 μl of secondary anti-mouse Alexa 488 antibody (1:1000 in PBS with 0.1% BSA), incubated for 30 minutes in the dark, washed with PBS (3×5 ml) and resuspended in 500 μl of PBS. Binding of the W6/32 antibody to MHC class I molecules was analyzed by FACS on the Beckman Coulter ADCXL4C flow cytometer. As a positive control hepatitis B virus core antigen HBVc18-27 P6Y˜C ([…]) was used. As a negative control T2 cells were used, to which no peptide was added.
Relative binding capacities of the peptides were expressed as the percent of the positive control signal (100%), normalized to the negative control (0%). A mean fluorescence that was at least 10% higher than the negative control level was considered positive binding.

Values joined by “and” are separate entries in the source; they are usually repeats but may differ in a detail not shown here. Identical values can stand only once. No end group written: not given here. O‑glycan = not defined here

As to “AHGVTSAPESRPAPGSTAPPA [GP5] (AHGVT(O‑glycan)SAPESRPAPGSTAPPA; not fully specified; reading uncertain; also: glycan structure not given here; listed as Homo sapiens) [MUC1 glycopeptide, glycosylated threonine within the VTS motif]”, in experiment [1], the “AHG 8 to -11” value is 26%, the “PAP8 to -11” value amounted to 47%, the “SAP8 to -11” value was found to be 27% and the “AVERAGE FRAGMENT LENGTH” value is listed as 11.6. Besides, in experiment [1], the “NUMBER OF FRAGMENTS” value was found to be 46, the “% of glycopeptide” value is 26% and the “8-11 mers (%)” value is 79%.

As for “AHGVTSAPESRPAPGSTAPPA [GP6] (AHGVTSAPES(O‑glycan)RPAPGSTAPPA; reading uncertain; also: glycan structure not given here; listed as Homo sapiens) [MUC1 glycopeptide, glycosylated within the ESR motif]”, in experiment [1], the “AHG 8 to -11” value came to 55%, the “PAP8 to -11” value is listed as 3%, the “SAP8 to -11” value is reported as 42% and the “AVERAGE FRAGMENT LENGTH” value was 10.6. In experiment [1], the “NUMBER OF FRAGMENTS” value is on record as 46; the “% of glycopeptide” value was 98% and 96%; the “8-11 mers (%)” value is 35%.

As for “AHGVTSAPESRPAPGSTAPPA [GP8] (AHGVTS(O‑glycan)APESRPAPGSTAPPA; reading uncertain; also: glycan structure not given here; listed as Homo sapiens) [chemically synthesized MUC1 derived glycopeptide, glycosylation site not readable]”, in experiment [1], the “AVERAGE FRAGMENT LENGTH” value worked out at 10.5, the “NUMBER OF FRAGMENTS” value is recorded as 46, the “% of glycopeptide” value came out at 21% and the “8-11 mers (%)” value is reported as 35%.

“AHGVTSAPESRPAPGSTAPPA [P4] (fragment of digested MUC1; listed as Homo sapiens) [Peptide P4]”: in experiment [1], the “AVERAGE FRAGMENT LENGTH” value amounted to 11.6, the “NUMBER OF FRAGMENTS” value was 31, the “% of glycopeptide” value amounted to 0% and the “8-11 mers (%)” value is recorded as 50%.

As for “APESRPAP (fragment of MUC1; listed as Homo sapiens)”, the “class I binding activity” value in experiment [2] was “considerable class I binding activity”.

“APESRPAPG (fragment of MUC1; listed as Homo sapiens)”: the “class I binding activity” value in experiment [2] was “considerable class I binding activity”.

With “APESRPAPGS (fragment of MUC1; listed as Homo sapiens)”, the “class I binding activity” value in experiment [2] is “considerable class I binding activity”.

Take HGVTSAPESRPAPGSTAPPA [GP7]: in experiment [1], the “AHG 8 to -11” value stood at 8%, the “PAP8 to -11” value was determined as 31%, the “SAP8 to -11” value is 61% and the “AVERAGE FRAGMENT LENGTH” value stood at 11.7. Moreover, in experiment [1], the “NUMBER OF FRAGMENTS” value is reported as 61; the “% of glycopeptide” value is 40% and 39%; the “8-11 mers (%)” value is given as 29%.

As to “PESRPAPGS (fragment of MUC1; listed as Homo sapiens)”, in experiment [2], the “class I binding activity” value is listed as “considerable class I binding activity”.

Regarding “PESRPAPGST (fragment of MUC1; listed as Homo sapiens)”, the “class I binding activity” value in experiment [2] is “considerable class I binding activity”.

For “S(-GalNAc)APDTRPAPG ({Ser(GalNAc)}-APDTRPAPG)”, in the experiment with HLA-A0201, the “ligation strength (binding to HLA-A0201)” value is “strongly reduce binding affinity in comparison with the corresponding nonglycosylated peptide”.

In the case of “SAPESRPAPG (fragment of MUC 1; listed as Homo sapiens)”, in experiment [2], the “class I binding activity” value is listed as “considerable class I binding activity”.

Turning to “SAPESRPAPGS (fragment of MUC1; listed as Homo sapiens)”, in experiment [2], the “class I binding activity” value is “considerable class I binding activity”.

In the case of “ST(-GalNAc)APPAHGVT ({Ser-T(GalNAc)}-APPAHGVT)”, the “ligation strength (binding to HLA-A0201)” value with HLA-A0201 was “strongly reduce binding affinity in comparison with the corresponding nonglycosylated peptide”.

Take STAPPAHGV [STA9]: in the experiment with HLA-A0201, the “ligation strength (binding to HLA-A0201)” value is “strongest binders” and the “change of ligation strength by introduction of GalNAc” value is on record as “reducing it to the level of the negative control”.

Turning to STAPPAHGVT [STA10], the “class I binding activity” value in experiment [2] is “considerable class I binding activity”. Also, in the experiment with HLA-A0201, the “ligation strength (binding to HLA-A0201)” value is recorded as “strongest binders” and the “change of ligation strength by introduction of GalNAc” value is “reducing it to the level of the negative control”.

B1: A(HGVTSAPESRPAPGSTAPPA)x3 (peptide, listed as Homo sapiens)
chain: AHGVTSAPESRPAPGSTAPPAHGVTSAPESRPAPGSTAPPAHGVTSAPESRPAPGSTAPPA
modifications: Fragment of digested MUC1
Turning to B1, in experiment [1], the “AVERAGE FRAGMENT LENGTH” value is given as 17.5, the “NUMBER OF FRAGMENTS” value was found to be 105, the “% of glycopeptide” value was 0% and the “8-11 mers (%)” value amounted to 26%.

These data come from patent publication US20090004212A1, “Tumour vaccines for MUC1-positive carcinomas” (priority 1997, published 2009).
